Our source for the stoichiometry N, IC50 of neutralisation of TNF-α (2.5 ng/mL)-induced cytotoxicity in L929 cells, MTT assay, molar basis and IC50 of neutralisation of TNF-α (2.5 ng/mL)-induced cytotoxicity in L929 cells, MTT assay, weight basis values is article PMC5943350.

For test [1], the target named is TNFRII-Trimer fusion protein (homotrimeric soluble human TNF receptor II fused to the Trimer-Tag, the C-propeptide of human α1(III) collagen) (human) (UniProt P20333). In words: SEC + other: non-reducing SDS-PAGE; purified TNFRII-Trimer on 10% SDS-PAGE under non-reducing or reducing conditions (Coomassie; Western blot under non-reducing conditions too) and SEC-HPLC (Sepax Zenix-C SEC-300, OD280), TNFRII-Fc as dimeric control.

The target in another test is human TNF-α (human) (UniProt P01375).
Sequence of UniProt P01375 (P01375 77-233): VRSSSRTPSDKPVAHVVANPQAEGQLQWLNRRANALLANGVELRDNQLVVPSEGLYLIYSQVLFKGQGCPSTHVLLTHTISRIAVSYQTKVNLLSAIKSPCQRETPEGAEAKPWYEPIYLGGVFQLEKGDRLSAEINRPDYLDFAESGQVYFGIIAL

Consider “TNFRII-Trimer fusion protein (homotrimeric soluble human TNF receptor II fused to the Trimer-Tag, the C-propeptide of human α1(III) collagen) (from UniProt P20333 23-256)”, for which the stoichiometry N in test [1] amounted to 3. As to “TNFRII-Fc (dimeric soluble human TNFRII receptor-Fc fusion) (from UniProt P20333 23-257)”, in the test with human TNF-α (human), the IC50 of neutralisation of TNF-α (2.5 ng/mL)-induced cytotoxicity in L929 cells, MTT assay, molar basis came out at 98.6 pM and the IC50 of neutralisation of TNF-α (2.5 ng/mL)-induced cytotoxicity in L929 cells, MTT assay, weight basis is 0.0101 µg/mL.

The stoichiometry N is the number of molecules, sites or subunits per partner or assembly.
